Consider 2 substances from patent US12617818.

In the assay the target is Rabbit skeletal myosin (rabbit). Description: cell-based or functional assay.

Rabbit skeletal myosin, sequence (Q28641 whole entry): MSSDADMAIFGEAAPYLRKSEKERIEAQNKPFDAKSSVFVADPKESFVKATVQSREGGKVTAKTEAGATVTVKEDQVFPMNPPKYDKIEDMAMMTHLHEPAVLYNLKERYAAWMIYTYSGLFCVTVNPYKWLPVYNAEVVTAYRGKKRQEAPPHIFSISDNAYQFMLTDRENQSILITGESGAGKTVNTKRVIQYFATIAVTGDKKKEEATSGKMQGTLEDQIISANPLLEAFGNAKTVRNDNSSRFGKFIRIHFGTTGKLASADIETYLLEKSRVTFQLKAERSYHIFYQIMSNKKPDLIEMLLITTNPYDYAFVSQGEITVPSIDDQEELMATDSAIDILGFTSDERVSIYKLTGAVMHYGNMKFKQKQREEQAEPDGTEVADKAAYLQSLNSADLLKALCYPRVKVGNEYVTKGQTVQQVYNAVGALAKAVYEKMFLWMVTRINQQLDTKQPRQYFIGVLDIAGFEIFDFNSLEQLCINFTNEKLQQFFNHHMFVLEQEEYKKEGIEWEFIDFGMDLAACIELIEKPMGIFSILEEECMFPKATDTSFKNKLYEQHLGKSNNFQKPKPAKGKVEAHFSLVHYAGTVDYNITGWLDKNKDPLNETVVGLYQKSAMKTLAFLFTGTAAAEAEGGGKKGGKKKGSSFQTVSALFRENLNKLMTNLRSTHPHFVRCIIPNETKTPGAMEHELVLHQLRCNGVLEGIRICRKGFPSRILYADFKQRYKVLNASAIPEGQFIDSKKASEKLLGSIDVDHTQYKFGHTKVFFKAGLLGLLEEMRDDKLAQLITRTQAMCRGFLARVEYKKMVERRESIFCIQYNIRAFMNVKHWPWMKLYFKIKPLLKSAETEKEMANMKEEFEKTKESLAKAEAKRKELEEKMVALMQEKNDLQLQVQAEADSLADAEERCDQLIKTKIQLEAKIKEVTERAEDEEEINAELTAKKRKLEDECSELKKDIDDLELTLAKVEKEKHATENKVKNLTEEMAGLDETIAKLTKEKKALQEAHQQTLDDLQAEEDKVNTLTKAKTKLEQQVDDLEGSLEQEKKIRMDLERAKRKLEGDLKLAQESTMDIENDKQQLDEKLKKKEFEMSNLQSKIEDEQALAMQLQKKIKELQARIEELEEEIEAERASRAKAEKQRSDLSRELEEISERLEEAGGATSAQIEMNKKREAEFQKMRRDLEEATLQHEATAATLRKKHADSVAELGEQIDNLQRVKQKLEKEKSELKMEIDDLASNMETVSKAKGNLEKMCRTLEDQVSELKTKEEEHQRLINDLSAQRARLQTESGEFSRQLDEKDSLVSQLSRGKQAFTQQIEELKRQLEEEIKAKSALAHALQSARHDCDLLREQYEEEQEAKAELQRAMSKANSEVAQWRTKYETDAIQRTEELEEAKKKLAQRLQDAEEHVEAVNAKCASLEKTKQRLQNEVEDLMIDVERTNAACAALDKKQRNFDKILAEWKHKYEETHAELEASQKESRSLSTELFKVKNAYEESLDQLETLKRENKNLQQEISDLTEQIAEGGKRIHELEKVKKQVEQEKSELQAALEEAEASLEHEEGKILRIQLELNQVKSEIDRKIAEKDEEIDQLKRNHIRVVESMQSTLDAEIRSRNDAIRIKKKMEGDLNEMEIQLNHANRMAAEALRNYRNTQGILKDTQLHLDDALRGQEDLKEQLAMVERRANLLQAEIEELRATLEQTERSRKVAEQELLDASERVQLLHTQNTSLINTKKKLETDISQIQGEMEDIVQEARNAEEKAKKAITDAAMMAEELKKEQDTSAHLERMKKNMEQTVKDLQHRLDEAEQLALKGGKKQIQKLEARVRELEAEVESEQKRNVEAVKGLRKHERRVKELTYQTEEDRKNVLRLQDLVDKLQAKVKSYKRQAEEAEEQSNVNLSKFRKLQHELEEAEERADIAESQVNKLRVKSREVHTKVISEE
Rabbit skeletal myosin, sequence (P02602 2-192, further chain): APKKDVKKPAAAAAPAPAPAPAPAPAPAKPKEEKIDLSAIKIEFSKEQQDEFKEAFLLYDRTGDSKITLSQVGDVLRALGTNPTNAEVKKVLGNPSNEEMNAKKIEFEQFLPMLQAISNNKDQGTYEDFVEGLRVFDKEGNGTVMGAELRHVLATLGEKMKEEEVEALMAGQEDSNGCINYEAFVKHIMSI
Rabbit skeletal myosin, sequence (P02608 2-170, further chain): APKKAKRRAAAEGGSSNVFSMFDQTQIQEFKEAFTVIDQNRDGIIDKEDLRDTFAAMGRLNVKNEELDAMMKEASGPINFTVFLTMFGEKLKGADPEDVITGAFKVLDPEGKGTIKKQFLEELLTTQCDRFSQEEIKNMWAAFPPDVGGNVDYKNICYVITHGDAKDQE

“Myosin binding protein C (MyBPC), whole length skeletal”: the in vitro motility: reduction of the motility of actin thin filaments over skeletal myosin thick filaments treated with MyBPC worked out at 22%.

The substance Rabbit skeletal myosin displayed a GFS: force at an uncoiled length of 138 nm, control without antibody of 4.8 pN; a GFS: force to uncoil the myosin molecule for a length of 50 nm, no stabilizer (control) of 3.62 pN; a GFS: force to uncoil the myosin molecule for a length of 60 nm, tethered by S1 heads to G-actin (control) of 2.67 pN; a GFS: force to uncoil the myosin molecule to a length of 100 nm, no destabilizer (control) of 4.92 pN.
